± gives the uncertainty stated by the source.

The labels stand for the following.
B1: CD2-associated protein, residues 271 to 331; numbered along this chain, Q9Y5K6 (parent)
chain: KEYCRTLFAYEGTNEDELTFKEGEIIHLISKETGEAGWWRGELNGKEGVFPDNFAVQINEL

The series covers variants of B1. In words: abundance fitness (aPCA) (normalised: wild type 0, dead -1); higher = more abundant; growth selection in yeast, the domain comes from the species named. The settings on record: Homo sapiens.
Consider KEYCRTLFAYEGTNEDELTFKEGEIIHLISKETGEAGWWRSELNGKEGVFPDNFAVQINEL [G41S], for which the abundance fitness is -0.71 ± 0.083.
Then KEYCRTLFAYEGTNEDELTFKEGEIIHLISKETGEAGWWRIELNGKEGVFPDNFAVQINEL [G41I], with -1.08 ± 0.36.
For the variant KEYCRTLFAYEGTNEDELTFKEGEIIHLISKETGEAGWWRDELNGKEGVFPDNFAVQINEL [G41D], the abundance fitness was -0.616 ± 0.18.
Then KEYCRTLFAYEGTNEDELTFKEGEIIHLISKETGEAGWWRVELNGKEGVFPDNFAVQINEL [G41V], with -1.06 ± 0.17; and KEYCRTLFAYEGTNEDELTFKEGEIIHLISKETGEAGWWRFELNGKEGVFPDNFAVQINEL [G41F], with -0.949 ± 0.23.
For KEYCRTLFAYEGTNEDELTFKEGEIIHLISKETGEAGWWRQELNGKEGVFPDNFAVQINEL [G41Q], the abundance fitness is -0.657 ± 0.12.
The result for KEYCRTLFAYEGTNEDELTFKEGEIIHLISKETGEAGWWRMELNGKEGVFPDNFAVQINEL [G41M] reads -1.01 ± 0.17; that for KEYCRTLFAYEGTNEDELTFKEGEIIHLISKETGEAGWWRHELNGKEGVFPDNFAVQINEL [G41H], -0.746 ± 0.25; that for KEYCRTLFAYEGTNEDELTFKEGEIIHLISKETGEAGWWRNELNGKEGVFPDNFAVQINEL [G41N], -0.881 ± 0.22.
Then KEYCRTLFAYEGTNEDELTFKEGEIIHLISKETGEAGWWRRELNGKEGVFPDNFAVQINEL [G41R], with -0.909 ± 0.11.
On to KEYCRTLFAYEGTNEDELTFKEGEIIHLISKETGEAGWWRGELNVKEGVFPDNFAVQINEL [G45V], for which the abundance fitness is -0.845 ± 0.083.
Then KEYCRTLFAYEGTNEDELTFKEGEIIHLISKETGEAGWWRGELNFKEGVFPDNFAVQINEL [G45F], with -0.408 ± 0.18.
For KEYCRTLFAYEGTNEDELTFKEGEIIHLISKETGEAGWWRGELNEKEGVFPDNFAVQINEL [G45E], the abundance fitness was -0.448 ± 0.086.
As to KEYCRTLFAYEGTNEDELTFKEGEIIHLISKETGEAGWWRGELNPKEGVFPDNFAVQINEL [G45P], the abundance fitness is -0.784 ± 0.11.
The result for KEYCRTLFAYEGTNEDELTFKEGEIIHLISKETGEAGWWRGELNCKEGVFPDNFAVQINEL [G45C] reads -0.322 ± 0.15.
Then KEYCRTLFAYEGTNEDELTFKEGEIIHLISKETGEAGWWRGELNMKEGVFPDNFAVQINEL [G45M], with -0.695 ± 0.12; and KEYCRTLFAYEGTNEDELTFKEGEIIHLISKETGEAGWWRGELNKKEGVFPDNFAVQINEL [G45K], with -0.438 ± 0.088.
Then KEYCRTLFAYEGTNEDELTFKEGEIIHLISKETGEAGWWRGELNWKEGVFPDNFAVQINEL [G45W], with -0.829 ± 0.22; and KEYCRTLFAYEGTNEDELTFKEGEIIHLISKETGEAGWWRGELNAKEGVFPDNFAVQINEL [G45A], with -0.437 ± 0.071; and KEYCRTLFAYEGTNEDELTFKEGEIIHLISKETGEAGWWRGELNNKEGVFPDNFAVQINEL [G45N], with -0.359 ± 0.21.
With KEYCRTLFAYEGTNEDELTFKEGEIIHLISKETGEAGWWRGELNLKEGVFPDNFAVQINEL [G45L], the abundance fitness is -0.858 ± 0.079.
The result for KEYCRTLFAYEGTNEDELTFKEGEIIHLISKETGEAGWWRGELNRKEGVFPDNFAVQINEL [G45R] reads -0.617 ± 0.087; that for KEYCRTLFAYEGTNEDELTFKEGEIIHLISKETGEAGWWRGELNTKEGVFPDNFAVQINEL [G45T], -0.746 ± 0.13; that for KEYCRTLFAYEGTNEDELTFKEGEIIHLISKETGEAGWWRGELNSKEGVFPDNFAVQINEL [G45S], -0.376 ± 0.064.
Then KEYCRTLFAYEGTNEDELTFKEGEIIHLISKETGEAGWWRGELNHKEGVFPDNFAVQINEL [G45H], with -0.343 ± 0.19.
In the case of KEYCRTLFAYEGTNEDELTFKEGEIIHLISKETGEAGWWRGELNIKEGVFPDNFAVQINEL [G45I], the abundance fitness was -0.453 ± 0.2.
With KEYCRTLFAYEGTNEDELTFKEGEIIHLISKETGEAGWWRGELNQKEGVFPDNFAVQINEL [G45Q], the abundance fitness is -0.612 ± 0.1.
On to KEYCRTLFAYEGTNEDELTFKEGEIIHLISKETGEAGWWRGELRGKEGVFPDNFAVQINEL [N44R], for which the abundance fitness is -0.073 ± 0.059.
The result for KEYCRTLFAYEGTNEDELTFKEGEIIHLISKETGEAGWWRGELQGKEGVFPDNFAVQINEL [N44Q] reads -0.507 ± 0.35.
The result for KEYCRTLFAYEGTNEDELTFKEGEIIHLISKETGEAGWWRGELMGKEGVFPDNFAVQINEL [N44M] reads -0.172 ± 0.23; that for KEYCRTLFAYEGTNEDELTFKEGEIIHLISKETGEAGWWRGELGGKEGVFPDNFAVQINEL [N44G], -0.029 ± 0.08; that for KEYCRTLFAYEGTNEDELTFKEGEIIHLISKETGEAGWWRGELLGKEGVFPDNFAVQINEL [N44L], -0.287 ± 0.048.
The result for KEYCRTLFAYEGTNEDELTFKEGEIIHLISKETGEAGWWRGELTGKEGVFPDNFAVQINEL [N44T] reads -0.518 ± 0.064; that for KEYCRTLFAYEGTNEDELTFKEGEIIHLISKETGEAGWWRGELVGKEGVFPDNFAVQINEL [N44V], -0.791 ± 0.092; that for KEYCRTLFAYEGTNEDELTFKEGEIIHLISKETGEAGWWRGELCGKEGVFPDNFAVQINEL [N44C], -0.273 ± 0.065.
For KEYCRTLFAYEGTNEDELTFKEGEIIHLISKETGEAGWWRGELHGKEGVFPDNFAVQINEL [N44H], the abundance fitness was -0.03 ± 0.058.
In the case of KEYCRTLFAYEGTNEDELTFKEGEIIHLISKETGEAGWWRGELDGKEGVFPDNFAVQINEL [N44D], the abundance fitness is -0.113 ± 0.065.
On to KEYCRTLFAYEGTNEDELTFKEGEIIHLISKETGEAGWWRGELPGKEGVFPDNFAVQINEL [N44P], for which the abundance fitness is -1.14 ± 0.2.
Then KEYCRTLFAYEGTNEDELTFKEGEIIHLISKETGEAGWWRGELYGKEGVFPDNFAVQINEL [N44Y], with -0.363 ± 0.084.
Then KEYCRTLFAYEGTNEDELTFKEGEIIHLISKETGEAGWWRGELEGKEGVFPDNFAVQINEL [N44E], with -0.043 ± 0.11; and KEYCRTLFAYEGTNEDELTFKEGEIIHLISKETGEAGWWRGELIGKEGVFPDNFAVQINEL [N44I], with -0.787 ± 0.11; and KEYCRTLFAYEGTNEDELTFKEGEIIHLISKETGEAGWWRGELFGKEGVFPDNFAVQINEL [N44F], with -0.449 ± 0.062.
For the variant KEYCRTLFAYEGTNEDELTFKEGEIIHLISKETGEAGWWRGELAGKEGVFPDNFAVQINEL [N44A], the abundance fitness is -0.152 ± 0.062.
Then KEYCRTLFAYEGTNEDELTFKEGEIIHLISKETGEAGWWRGELWGKEGVFPDNFAVQINEL [N44W], with -0.568 ± 0.25.

These data come from the Human Domainome abundance scans (Beltran et al. 2025).
